Results: article PMC5812673

Biological target: Insulin Aspart (human)
Assay: hexamer dissociation kinetics

Substance: Insulin Aspart (natural protein)
- Hexamer t½ (dissociation of the Zn2+-hexamer): 42.7 s
